According to patent US20190071477A1:

How the values were obtained:
[1] = target: C3b (UniProt P01024); experiment: cell-based or functional assay
[2] = target: C3b (UniProt P01024); experiment: ELISA on plates coated with C3b (5 ug/mL), detection with mouse anti-human CFH antibody and HRP goat anti-mouse, OD450

Chain of hSCR (1-7)-mFc fusion protein (chain): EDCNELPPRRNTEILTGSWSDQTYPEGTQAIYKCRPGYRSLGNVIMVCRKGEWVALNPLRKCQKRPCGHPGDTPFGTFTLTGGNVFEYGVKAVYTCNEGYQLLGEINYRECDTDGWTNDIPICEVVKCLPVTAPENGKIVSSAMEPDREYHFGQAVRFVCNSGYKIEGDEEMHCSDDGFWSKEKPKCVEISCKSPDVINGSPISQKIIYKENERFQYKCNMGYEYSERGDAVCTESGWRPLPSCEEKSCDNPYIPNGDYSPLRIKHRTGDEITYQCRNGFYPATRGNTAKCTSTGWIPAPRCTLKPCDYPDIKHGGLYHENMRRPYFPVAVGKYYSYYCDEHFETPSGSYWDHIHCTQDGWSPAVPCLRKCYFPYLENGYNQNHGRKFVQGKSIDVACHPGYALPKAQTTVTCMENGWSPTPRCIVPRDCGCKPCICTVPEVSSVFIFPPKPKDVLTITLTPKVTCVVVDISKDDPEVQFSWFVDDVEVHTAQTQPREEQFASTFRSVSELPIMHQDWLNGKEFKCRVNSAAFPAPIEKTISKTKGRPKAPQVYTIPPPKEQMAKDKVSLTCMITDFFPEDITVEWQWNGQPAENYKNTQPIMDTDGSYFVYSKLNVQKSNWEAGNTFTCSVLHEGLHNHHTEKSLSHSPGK
Chain of hSCR (1-7)-hSCR (18-20)-hFc fusion protein (P08603 other isoform, or with tags, fused parts or gaps limits assumed): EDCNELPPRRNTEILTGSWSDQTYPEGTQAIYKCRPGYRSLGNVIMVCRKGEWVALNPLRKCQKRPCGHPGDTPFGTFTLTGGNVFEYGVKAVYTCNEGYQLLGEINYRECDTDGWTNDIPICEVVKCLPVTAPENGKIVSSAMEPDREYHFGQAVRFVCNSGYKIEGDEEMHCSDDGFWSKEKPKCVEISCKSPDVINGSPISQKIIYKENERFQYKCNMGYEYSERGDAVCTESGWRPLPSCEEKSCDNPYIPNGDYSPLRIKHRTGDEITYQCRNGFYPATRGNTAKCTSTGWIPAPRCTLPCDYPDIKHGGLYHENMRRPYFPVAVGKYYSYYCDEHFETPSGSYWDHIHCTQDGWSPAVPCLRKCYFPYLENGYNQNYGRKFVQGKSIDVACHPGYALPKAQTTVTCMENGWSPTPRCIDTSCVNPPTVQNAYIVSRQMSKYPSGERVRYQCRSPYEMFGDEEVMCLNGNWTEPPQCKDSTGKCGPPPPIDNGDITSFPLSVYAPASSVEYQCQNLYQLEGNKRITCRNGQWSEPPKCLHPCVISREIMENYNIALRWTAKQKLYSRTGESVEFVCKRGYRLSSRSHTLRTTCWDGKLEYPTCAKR
Chain of human CFH (complement Factor H) (P08603 19-1231 limits assumed): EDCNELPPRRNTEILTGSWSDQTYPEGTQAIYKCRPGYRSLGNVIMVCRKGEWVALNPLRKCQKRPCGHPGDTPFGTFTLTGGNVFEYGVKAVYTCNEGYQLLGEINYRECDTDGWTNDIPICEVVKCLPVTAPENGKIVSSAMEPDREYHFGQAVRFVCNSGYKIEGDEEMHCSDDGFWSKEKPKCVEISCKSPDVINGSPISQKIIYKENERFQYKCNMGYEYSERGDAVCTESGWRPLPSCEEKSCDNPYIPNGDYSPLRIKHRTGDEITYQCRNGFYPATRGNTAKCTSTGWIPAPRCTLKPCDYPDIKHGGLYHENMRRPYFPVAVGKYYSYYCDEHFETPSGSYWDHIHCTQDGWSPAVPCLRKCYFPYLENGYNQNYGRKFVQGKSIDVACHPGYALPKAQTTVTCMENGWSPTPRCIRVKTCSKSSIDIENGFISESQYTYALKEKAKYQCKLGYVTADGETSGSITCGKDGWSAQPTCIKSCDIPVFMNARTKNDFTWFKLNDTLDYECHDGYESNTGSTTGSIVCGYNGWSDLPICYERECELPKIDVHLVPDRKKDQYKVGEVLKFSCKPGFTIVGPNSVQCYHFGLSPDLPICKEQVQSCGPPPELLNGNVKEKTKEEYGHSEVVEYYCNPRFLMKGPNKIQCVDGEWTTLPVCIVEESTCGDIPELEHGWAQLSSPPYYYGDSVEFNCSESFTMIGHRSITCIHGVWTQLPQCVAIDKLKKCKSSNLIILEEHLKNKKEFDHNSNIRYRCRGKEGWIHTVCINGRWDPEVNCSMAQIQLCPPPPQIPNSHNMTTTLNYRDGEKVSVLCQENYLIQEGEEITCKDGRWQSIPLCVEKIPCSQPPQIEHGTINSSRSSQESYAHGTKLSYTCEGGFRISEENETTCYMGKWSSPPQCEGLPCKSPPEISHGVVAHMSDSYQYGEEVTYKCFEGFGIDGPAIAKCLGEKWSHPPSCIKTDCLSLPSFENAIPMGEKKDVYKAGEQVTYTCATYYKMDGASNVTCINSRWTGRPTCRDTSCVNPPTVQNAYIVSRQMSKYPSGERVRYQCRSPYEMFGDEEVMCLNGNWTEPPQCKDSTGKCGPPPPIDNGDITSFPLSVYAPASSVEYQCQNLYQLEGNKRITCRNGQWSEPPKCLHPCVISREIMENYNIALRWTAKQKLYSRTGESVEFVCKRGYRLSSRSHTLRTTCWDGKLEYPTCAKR

Row | Substance | IC50, inhibition of rabbit red blood cell hemolysis mediated by the alternative complement pathway [1] [nM] | hemolysis inhibiting activity relative to human CFH [1] [times] | EC50 (read off the curve) [2] [nM]
1 | hSCR (1-7)-hFc fusion protein | 74 | 5 | 30
2 | hSCR (1-7)-mFc fusion protein | 86 | – | 30
3 | human CFH (complement Factor H) (from UniProt P08603 19-1231) | 370 | – | –
4 | hSCR (1-7)-hSCR (18-20)-hFc fusion protein (from UniProt P08603 19-1231) | 330 | – | –
